The data set concerns the target von Willebrand factor (vWf) (Homo sapiens, UniProt P04275). The data set can be described thus: Stabilisation of vWf by nanofiltered albumin: freeze-drying and dry heating at 80° C. for 72 hours. In kind it is physicochemical. Particulars: preliminary tests: vWf solution with glycine and arginine, no albumin, dry heating 80° C. The procedure: The power of the nanofiltered albumin to stabilise von Willebrand factor (vWf) was assessed using dry heating tests of vWf at 80° C. for 72 hours.
These solutions are then submitted to freeze-drying (45±3 hours) and dry heating as defined above. After heating, the addition of purified water for injection (PWI) to the dry residues reconstitutes solutions A11-A12. The following parameters are analysed: appearance of the solution, dissolution time, activity of vWf and multimeric profile, as measured by electrophoresis.

Where only a bound is given, the exact number is not on record here.

From US10562957B2, “Albumin-purification method comprising a nanofiltration step, solution, and composition for therapeutic use containing the same” (LABORATOIRE FRANCAIS DU FRACTIONNEMENT ET DES …, priority 2004, dated 2020) come the findings set out here.

In the case of “vWf: von Willebrand factor solution stabilised with glycine and arginine, without albumin”, the “activity of vWf (vWf:Ag) compared to the non-heated vWf” value is greater than 82% and the multimeric profile result is given as “not maintained”.
